# Columns and labels:
# Assay in all cases: cell-based or functional assay
# [1] = target: HIV-1 Env of pseudovirus 3817.v2.c59 (HIV-1)
# [2] = target: HIV-1 Env of pseudovirus 231965.c01 (HIV-1)
# [3] = target: HIV-1 Env of pseudovirus C1080.c03 (HIV-1)
# [4] = target: HIV-1 Env of pseudovirus R1166.c01 (HIV-1)
# [5] = target: HIV-1 Env of pseudovirus X1632_S2_B10 (HIV-1)
# [6] = target: HIV-1 Env of pseudovirus X2131_C1_B5 (HIV-1)
# [7] = target: HIV-1 Env of pseudovirus X1193_c1 (HIV-1)
# [8] = target: HIV-1 Env of pseudovirus 235-47 (HIV-1)
# [9] = target: HIV-1 Env of pseudovirus R3265.c06 (HIV-1)
# [10] = target: HIV-1 Env of pseudovirus 6540.v4.c1 (HIV-1)
# [11] = target: HIV-1 Env of pseudovirus BJOX028000.10.3 (HIV-1)
# [12] = target: HIV-1 Env of pseudovirus P0402_c2_11 (HIV-1)
# [13] = target: HIV-1 Env of pseudovirus 211-9 (HIV-1)
# [14] = target: HIV-1 Env of pseudovirus BJOX009000.02.4 (HIV-1)
# [15] = target: HIV-1 Env of pseudovirus BJOX025000.01.1 (HIV-1)
# [16] = target: HIV-1 Env of pseudovirus 231966.c02 (HIV-1)
# [17] = target: HIV-1 Env of pseudovirus X1254_c3 (HIV-1)
# [18] = target: HIV-1 Env of pseudovirus 6041.v3.c23 (HIV-1)
# [19] = target: HIV-1 Env of pseudovirus X2088_c9 (HIV-1)
# [20] = target: HIV-1 Env of pseudovirus BJOX010000.06.2 (HIV-1)
# [21] = target: HIV-1 Env of pseudovirus A07412M1.vrc12 (HIV-1)
# [22] = target: HIV-1 Env of pseudovirus 0815.v3.c3 (HIV-1)
# [23] = target: HIV-1 Env of pseudovirus R2184.c04 (HIV-1)
# [24] = target: HIV-1 Env of pseudovirus T278-50 (HIV-1)
# [25] = target: HIV-1 Env of pseudovirus 6952.v1.c20 (HIV-1)
# [26] = target: HIV-1 Env of pseudovirus C3347.c11 (HIV-1)
# [27] = target: HIV-1 Env of pseudovirus BJOX015000.11.5 (HIV-1)
# [28] = target: HIV-1 Env of pseudovirus 89-F1_2_25 (HIV-1)
# [29] = target: HIV-1 Env of pseudovirus T255-34 (HIV-1)
# [30] = target: HIV-1 Env of pseudovirus 6811.v7.c18 (HIV-1)
# [31] = target: HIV-1 Env of pseudovirus 6545.v4.c1 (HIV-1)
# [32] = target: HIV-1 Env of pseudovirus 3016.v5.c45 (HIV-1)
substance,measurement,setting,value
10E8 (antibody),IC50 neutralization (TZM.bl),[1],1.18 µg/mL
same,IC80 neutralization (TZM.bl),[1],5.98 µg/mL
same,IC50 neutralization (TZM.bl),[2],> 10 µg/mL
same,IC80 neutralization (TZM.bl),[2],> 10 µg/mL
same,IC50 neutralization (TZM.bl),[3],0.061 µg/mL
same,IC80 neutralization (TZM.bl),[3],0.731 µg/mL
same,IC50 neutralization (TZM.bl),[4],0.274 µg/mL
same,IC80 neutralization (TZM.bl),[4],2.61 µg/mL
same,IC50 neutralization (TZM.bl),[5],1.98 µg/mL
same,IC80 neutralization (TZM.bl),[5],9.68 µg/mL
same,IC50 neutralization (TZM.bl),[6],0.189 µg/mL
same,IC80 neutralization (TZM.bl),[6],0.974 µg/mL
same,IC50 neutralization (TZM.bl),[7],0.497 µg/mL
same,IC80 neutralization (TZM.bl),[7],4.2 µg/mL
same,IC50 neutralization (TZM.bl),[8],0.384 µg/mL
same,IC80 neutralization (TZM.bl),[8],2.07 µg/mL
same,IC50 neutralization (TZM.bl),[9],> 10 µg/mL
same,IC80 neutralization (TZM.bl),[9],> 10 µg/mL
same,IC50 neutralization (TZM.bl),[10],1.9 µg/mL
same,IC80 neutralization (TZM.bl),[10],10 µg/mL
same,IC50 neutralization (TZM.bl),[11],0.665 µg/mL
same,IC80 neutralization (TZM.bl),[11],7.36 µg/mL
same,IC50 neutralization (TZM.bl),[12],0.172 µg/mL
same,IC80 neutralization (TZM.bl),[12],3.29 µg/mL
same,IC50 neutralization (TZM.bl),[13],1.09 µg/mL
same,IC80 neutralization (TZM.bl),[13],6.51 µg/mL
same,IC50 neutralization (TZM.bl),[14],1.57 µg/mL
same,IC80 neutralization (TZM.bl),[14],9.95 µg/mL
same,IC50 neutralization (TZM.bl),[15],0.107 µg/mL
same,IC80 neutralization (TZM.bl),[15],6.33 µg/mL
same,IC50 neutralization (TZM.bl),[16],0.191 µg/mL
same,IC80 neutralization (TZM.bl),[16],3.13 µg/mL
same,IC50 neutralization (TZM.bl),[17],4.75 µg/mL
same,IC80 neutralization (TZM.bl),[17],> 10 µg/mL
same,IC50 neutralization (TZM.bl),[18],2.33 µg/mL
same,IC80 neutralization (TZM.bl),[18],9.77 µg/mL
same,IC50 neutralization (TZM.bl),[19],> 10 µg/mL
same,IC80 neutralization (TZM.bl),[19],> 10 µg/mL
same,IC50 neutralization (TZM.bl),[20],0.341 µg/mL
same,IC80 neutralization (TZM.bl),[20],5.29 µg/mL
same,IC50 neutralization (TZM.bl),[21],0.576 µg/mL
same,IC80 neutralization (TZM.bl),[21],6.05 µg/mL
same,IC50 neutralization (TZM.bl),[22],0.332 µg/mL
same,IC80 neutralization (TZM.bl),[22],2.87 µg/mL
same,IC50 neutralization (TZM.bl),[23],0.272 µg/mL
same,IC80 neutralization (TZM.bl),[23],2.46 µg/mL
same,IC50 neutralization (TZM.bl),[24],0.949 µg/mL
same,IC80 neutralization (TZM.bl),[24],7.46 µg/mL
same,IC50 neutralization (TZM.bl),[25],0.343 µg/mL
same,IC80 neutralization (TZM.bl),[25],1.91 µg/mL
same,IC50 neutralization (TZM.bl),[26],0.016 µg/mL
same,IC80 neutralization (TZM.bl),[26],0.167 µg/mL
same,IC50 neutralization (TZM.bl),[27],0.051 µg/mL
same,IC80 neutralization (TZM.bl),[27],1.91 µg/mL
same,IC50 neutralization (TZM.bl),[28],1.11 µg/mL
same,IC80 neutralization (TZM.bl),[28],10 µg/mL
same,IC50 neutralization (TZM.bl),[29],0.778 µg/mL
same,IC80 neutralization (TZM.bl),[29],4.21 µg/mL
same,IC50 neutralization (TZM.bl),[30],7.54 µg/mL
same,IC80 neutralization (TZM.bl),[30],> 10 µg/mL
same,IC50 neutralization (TZM.bl),[31],1.78 µg/mL
same,IC80 neutralization (TZM.bl),[31],8.23 µg/mL
same,IC50 neutralization (TZM.bl),[32],0.476 µg/mL
same,IC80 neutralization (TZM.bl),[32],4.39 µg/mL

# Reference: patent US20240117018A1
